Experimental data: article PMC10039900, “Characterization of human oxidoreductases involved in aldehyde odorant metabolism” (Scientific Reports, 2023)

Target: the molecule itself
Experiment: crystal structure; sitting drop vapor diffusion at 20 °C, ALDH3A1 2 mg/ml, 18% PEG 3350 in 0.1 M potassium acetate pH 7.5; crystals soaked in mother liquor plus 10 mM octanal; 1.80 Å

B1: aldehyde dehydrogenase family 3 member A1 (ALDH3A1) (enzyme, human)
chain: SKISEAVKRARAAFSSGRTRPLQFRIQQLEALQRLIQEQEQELVGALAADLHKNEWNAYYEEVVYVLEEIEYMIQKLPEWAADEPVEKTPQTQQDELYIHSEPLGVVLVIGTWNYPFNLTIQPMVGAIAAGNSVVLKPSELSENMASLLATIIPQYLDKDLYPVINGGVPETTELLKERFDHILYTGSTGVGKIIMTAAAKHLTPVTLELGGKSPCYVDKNCDLDVACRRIAWGKFMNSGQTCVAPDYILCDPSIQNQIVEKLKKSLKEFYGEDAKKSRDYGRIISARHFQRVMGLIEGQKVAYGGTGDAATRYIAPTILTDVDPQSPVMQEEIFGPVLPIVCVRSLEEAIQFINQREKPLALYMFSSNDKVIKKMIAETSSGGVAANDVIVHITLHSLPFGGVGNSGMGSYHGKKSFETFSHRRSCLVRPLMNDEGLKVRYPPSPAKMTQH
notes: human ALDH3A1, UniProt P30838; Subcloned between NdeI and SacI; The crystal was soaked with 10 mM octanal (a small molecule, not a partner); also called aldehyde dehydrogenase 3A1; Aldehyde dehydrogenase, dimeric NADP-preferring; source: E. coli BL21(DE3), purified (two ammonium sulfate precipitations, two chromatography steps)
B1: binds.
